Source: IntAct's records for PubMed 11483516

B1: STAM-binding protein (Homo sapiens), O95630 (parent)
chain: MSDHGDVSLPPEDRVRALSQLGSAVEVNEDIPPRRYFRSGVEIIRMASIYSEEGNIEHAFILYNKYITLFIEKLPKHRDYKSAVIPEKKDTVKKLKEIAFPKAEELKAELLKRYTKEYTEYNEEKKKEAEELARNMAIQQELEKEKQRVAQQKQQQLEQEQFHAFEEMIRNQELEKERLKIVQEFGKVDPGLGGPLVPDLEKPSLDVFPTLTVSSIQPSDCHTTVRPAKPPVVDRSLKPGALSNSESIPTIDGLRHVVVPGRLCPQFLQLASANTARGVETCGILCGKLMRNEFTITHVLIPKQSAGSDYCNTENEEELFLIQDQQGLITLGWIHTHPTQTAFLSSVDLHTHCSYQMMLPESVAIVCSPKFQETGFFKLTDHGLEEISSCRQKGFHPHSKDPPLFCSCSHVTVVDRAVTITDLR
partner: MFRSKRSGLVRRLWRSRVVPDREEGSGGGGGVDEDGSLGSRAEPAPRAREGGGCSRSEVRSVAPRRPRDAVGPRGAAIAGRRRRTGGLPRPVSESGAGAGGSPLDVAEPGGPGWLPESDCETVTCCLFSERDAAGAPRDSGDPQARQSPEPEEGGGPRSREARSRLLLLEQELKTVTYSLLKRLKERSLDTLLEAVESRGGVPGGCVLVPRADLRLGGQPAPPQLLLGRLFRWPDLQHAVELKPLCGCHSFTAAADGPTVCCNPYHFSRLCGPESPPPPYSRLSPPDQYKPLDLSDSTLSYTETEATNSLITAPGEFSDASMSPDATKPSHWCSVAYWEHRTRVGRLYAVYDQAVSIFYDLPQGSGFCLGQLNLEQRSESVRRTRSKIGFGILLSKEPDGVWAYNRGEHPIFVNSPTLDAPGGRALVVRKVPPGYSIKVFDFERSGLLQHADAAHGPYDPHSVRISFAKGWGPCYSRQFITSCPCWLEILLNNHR

Variants of: B1
Details: with smad6_mouse Smad6, O35182

effect of a mutation on the interaction	Variant
increasing interaction	MSDHGDVSLPPEDRVRALSQLGSAVEVNEDIPPRRYFRSGVEIIRMASIYSEEGNIEHAFILYNKYITLFIEKLPKHRDYKSAVIPEKKDTVKKLKEIAFPKAEELKAELLKRYTKEYTEYNEEKKKEAEELARNMAIQQELEKEKQRVAQQKQQQLEQEQFHAFEEMIRNQELEKERLKIVQEFGKVDPGLGGPLVPDLEKPSLDVFPTLTVSSIQPSDCHTTVRPAKPPVVDRSLKPGALANAEAIPTIDGLRHVVVPGRLCPQFLQLASANTARGVETCGILCGKLMRNEFTITHVLIPKQSAGSDYCNTENEEELFLIQDQQGLITLGWIHTHPTQTAFLSSVDLHTHCSYQMMLPESVAIVCSPKFQETGFFKLTDHGLEEISSCRQKGFHPHSKDPPLFCSCSHVTVVDRAVTITDLR [S243A;S245A;S247A]
